One block for each substance: values may come before it.
How the values were obtained:
[1] = target: mouse anti-human BCL2 oncoprotein, Clone 124 (DakoCytomation code No. M0887); assay: IHC on FFPE tonsil: unconjugated M0887 1:100 (0.015 uM) on tissue, then K5007 GaM:HRP 30 min
Human CD20cy (human) [2] = target: Human CD20cy (human) (UniProt P11836); assay: IHC on FFPE tonsil, primary 1:14000, PNA based detection (D12102 + D12094)
Human CD20cy (human) [3] = target: Human CD20cy (human) (UniProt P11836); assay: IHC on FFPE tonsil, primary 1:8000, PNA based detection (D12102 + D12094)
Human CD20cy (human) [4] = target: Human CD20cy (human) (UniProt P11836); assay: IHC on multi-block FFPE tissue, primary 1:8000, PNA system (D12102 + D12094)
Human CD20cy (human) [5] = target: Human CD20cy (human) (UniProt P11836); assay: IHC on FFPE tonsil, primary 1:2000, PNA based detection (D12102 + D12094)
Human CD20cy (human) [6] = target: Human CD20cy (human) (UniProt P11836); assay: IHC on multi-block FFPE tissue, primary 1:8000, K5007 reference
Human CD20cy (human) [7] = target: Human CD20cy (human) (UniProt P11836); assay: IHC on FFPE tonsil, primary 1:8000, EnVision-based detection K5007
Human CD45 LCA (human) [8] = target: Human CD45 LCA (human) (UniProt P08575); assay: IHC on multi-block FFPE tissue, primary 1:1600, K5007 reference
Human CD45 LCA (human) [9] = target: Human CD45 LCA (human) (UniProt P08575); assay: IHC on multi-block FFPE tissue, primary 1:1600, PNA system (D12102 + D12094)
Human CD68 (human) [10] = target: Human CD68 (human) (UniProt P34810); assay: IHC on multi-block FFPE tissue, primary 1:800, K5007 reference
Human CD68 (human) [11] = target: Human CD68 (human) (UniProt P34810); assay: IHC on multi-block FFPE tissue, primary 1:800, PNA system (D12102 + D12094)
[12] = target: Human Cytokeratin (human); assay: IHC on FFPE tonsil, primary 1:900, PNA based detection (D12102 + D12094)
[13] = target: Human Cytokeratin (human); assay: Double IHC on multi tissue sections, M3515 1:50, GaM-dex-PNA1 (209-149) + PNA2-dex-HRP (209-157), detection method 1
[14] = target: Human Cytokeratin (human); assay: IHC on FFPE tonsil, primary 1:300, PNA based detection (GAM/dextran/PNA1 D12102 + HRP/dextran/PNA2 D12094); score 0 to 3+
[15] = target: Human Cytokeratin (human); assay: IHC on multi-block FFPE tissue, primary 1:900, PNA system (D12102 + D12094)
[16] = target: Human Cytokeratin (human); assay: IHC on FFPE tonsil, primary 1:900, EnVision-based detection K5007
[17] = target: Human Cytokeratin (human); assay: Double IHC on multi tissue sections, M3515 1:50, GaM-dex-PNA1 (209-149) + PNA2-dex-HRP (209-157), detection method 2
[18] = target: Human Cytokeratin (human); assay: IHC on FFPE tonsil, primary 1:1600, PNA based detection (D12102 + D12094)
[19] = target: Human Cytokeratin (human); assay: IHC on multi-block FFPE tissue, primary 1:900, K5007 reference
[20] = target: Human Cytokeratin (human); assay: Double IHC on multi tissue sections, M3515 1:50, GaM-dex-PNA1 + PNA2-dex-HRP, DAB+
Human Desmin (human) [21] = target: Human Desmin (human) (UniProt P17661); assay: IHC on multi-block FFPE tissue, primary 1:1200, PNA system (D12102 + D12094)
Human Desmin (human) [22] = target: Human Desmin (human) (UniProt P17661); assay: IHC on multi-block FFPE tissue, primary 1:1200, K5007 reference
[23] = target: Human Epithelial Membrane Antigen (human) (UniProt P15941); assay: IHC on multi-block FFPE tissue, primary 1:6400, PNA system (D12102 + D12094)
UniProt P15941, sequence (P15941 24-1255 limits assumed): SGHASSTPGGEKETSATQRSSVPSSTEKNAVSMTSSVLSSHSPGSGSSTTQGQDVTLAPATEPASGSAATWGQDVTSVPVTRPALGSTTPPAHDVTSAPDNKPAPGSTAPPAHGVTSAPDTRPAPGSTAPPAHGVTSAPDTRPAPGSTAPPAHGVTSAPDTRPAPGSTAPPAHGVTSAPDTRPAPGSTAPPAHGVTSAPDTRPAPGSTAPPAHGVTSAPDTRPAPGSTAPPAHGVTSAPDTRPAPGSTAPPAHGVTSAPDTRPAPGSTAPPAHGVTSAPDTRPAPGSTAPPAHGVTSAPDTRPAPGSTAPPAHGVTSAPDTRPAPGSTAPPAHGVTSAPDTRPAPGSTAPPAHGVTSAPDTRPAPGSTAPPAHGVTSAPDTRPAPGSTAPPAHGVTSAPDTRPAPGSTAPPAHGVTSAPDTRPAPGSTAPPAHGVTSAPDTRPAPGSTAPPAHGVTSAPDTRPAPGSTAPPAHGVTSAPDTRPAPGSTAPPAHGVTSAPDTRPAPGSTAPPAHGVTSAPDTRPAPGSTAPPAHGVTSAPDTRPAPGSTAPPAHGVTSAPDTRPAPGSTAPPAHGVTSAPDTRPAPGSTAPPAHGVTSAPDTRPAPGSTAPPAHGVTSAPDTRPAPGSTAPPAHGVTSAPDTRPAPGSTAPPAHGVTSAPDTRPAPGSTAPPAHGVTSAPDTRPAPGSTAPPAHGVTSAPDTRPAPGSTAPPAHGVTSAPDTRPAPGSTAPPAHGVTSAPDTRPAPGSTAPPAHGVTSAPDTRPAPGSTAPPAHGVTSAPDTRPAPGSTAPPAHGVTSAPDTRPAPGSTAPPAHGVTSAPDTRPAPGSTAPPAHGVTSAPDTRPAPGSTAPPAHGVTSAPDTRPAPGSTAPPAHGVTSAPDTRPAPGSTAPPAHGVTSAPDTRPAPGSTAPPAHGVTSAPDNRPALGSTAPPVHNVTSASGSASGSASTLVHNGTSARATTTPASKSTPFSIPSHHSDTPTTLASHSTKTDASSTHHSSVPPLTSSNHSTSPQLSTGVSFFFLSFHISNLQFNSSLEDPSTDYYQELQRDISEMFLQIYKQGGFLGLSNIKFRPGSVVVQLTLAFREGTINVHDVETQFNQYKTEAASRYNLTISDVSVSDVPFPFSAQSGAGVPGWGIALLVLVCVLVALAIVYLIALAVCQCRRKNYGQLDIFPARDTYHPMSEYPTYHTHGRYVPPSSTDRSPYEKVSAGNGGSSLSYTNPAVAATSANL

[24] = target: Human Epithelial Membrane Antigen (human) (UniProt P15941); assay: IHC on multi-block FFPE tissue, primary 1:6400, K5007 reference
[25] = target: Human Estrogen Receptor (human) (UniProt P03372); assay: IHC on multi-block FFPE tissue, primary 1:200, PNA system (D12102 + D12094)
[26] = target: Human Estrogen Receptor (human) (UniProt P03372); assay: IHC on multi-block FFPE tissue, primary 1:200, K5007 reference
[27] = target: Human Ki-67 Antigen (human) (UniProt P46013); assay: IHC on multi tissue section, M7240 1:150, 3-layer PNA system with HRP, DAB+
UniProt P46013, sequence (P46013 whole entry): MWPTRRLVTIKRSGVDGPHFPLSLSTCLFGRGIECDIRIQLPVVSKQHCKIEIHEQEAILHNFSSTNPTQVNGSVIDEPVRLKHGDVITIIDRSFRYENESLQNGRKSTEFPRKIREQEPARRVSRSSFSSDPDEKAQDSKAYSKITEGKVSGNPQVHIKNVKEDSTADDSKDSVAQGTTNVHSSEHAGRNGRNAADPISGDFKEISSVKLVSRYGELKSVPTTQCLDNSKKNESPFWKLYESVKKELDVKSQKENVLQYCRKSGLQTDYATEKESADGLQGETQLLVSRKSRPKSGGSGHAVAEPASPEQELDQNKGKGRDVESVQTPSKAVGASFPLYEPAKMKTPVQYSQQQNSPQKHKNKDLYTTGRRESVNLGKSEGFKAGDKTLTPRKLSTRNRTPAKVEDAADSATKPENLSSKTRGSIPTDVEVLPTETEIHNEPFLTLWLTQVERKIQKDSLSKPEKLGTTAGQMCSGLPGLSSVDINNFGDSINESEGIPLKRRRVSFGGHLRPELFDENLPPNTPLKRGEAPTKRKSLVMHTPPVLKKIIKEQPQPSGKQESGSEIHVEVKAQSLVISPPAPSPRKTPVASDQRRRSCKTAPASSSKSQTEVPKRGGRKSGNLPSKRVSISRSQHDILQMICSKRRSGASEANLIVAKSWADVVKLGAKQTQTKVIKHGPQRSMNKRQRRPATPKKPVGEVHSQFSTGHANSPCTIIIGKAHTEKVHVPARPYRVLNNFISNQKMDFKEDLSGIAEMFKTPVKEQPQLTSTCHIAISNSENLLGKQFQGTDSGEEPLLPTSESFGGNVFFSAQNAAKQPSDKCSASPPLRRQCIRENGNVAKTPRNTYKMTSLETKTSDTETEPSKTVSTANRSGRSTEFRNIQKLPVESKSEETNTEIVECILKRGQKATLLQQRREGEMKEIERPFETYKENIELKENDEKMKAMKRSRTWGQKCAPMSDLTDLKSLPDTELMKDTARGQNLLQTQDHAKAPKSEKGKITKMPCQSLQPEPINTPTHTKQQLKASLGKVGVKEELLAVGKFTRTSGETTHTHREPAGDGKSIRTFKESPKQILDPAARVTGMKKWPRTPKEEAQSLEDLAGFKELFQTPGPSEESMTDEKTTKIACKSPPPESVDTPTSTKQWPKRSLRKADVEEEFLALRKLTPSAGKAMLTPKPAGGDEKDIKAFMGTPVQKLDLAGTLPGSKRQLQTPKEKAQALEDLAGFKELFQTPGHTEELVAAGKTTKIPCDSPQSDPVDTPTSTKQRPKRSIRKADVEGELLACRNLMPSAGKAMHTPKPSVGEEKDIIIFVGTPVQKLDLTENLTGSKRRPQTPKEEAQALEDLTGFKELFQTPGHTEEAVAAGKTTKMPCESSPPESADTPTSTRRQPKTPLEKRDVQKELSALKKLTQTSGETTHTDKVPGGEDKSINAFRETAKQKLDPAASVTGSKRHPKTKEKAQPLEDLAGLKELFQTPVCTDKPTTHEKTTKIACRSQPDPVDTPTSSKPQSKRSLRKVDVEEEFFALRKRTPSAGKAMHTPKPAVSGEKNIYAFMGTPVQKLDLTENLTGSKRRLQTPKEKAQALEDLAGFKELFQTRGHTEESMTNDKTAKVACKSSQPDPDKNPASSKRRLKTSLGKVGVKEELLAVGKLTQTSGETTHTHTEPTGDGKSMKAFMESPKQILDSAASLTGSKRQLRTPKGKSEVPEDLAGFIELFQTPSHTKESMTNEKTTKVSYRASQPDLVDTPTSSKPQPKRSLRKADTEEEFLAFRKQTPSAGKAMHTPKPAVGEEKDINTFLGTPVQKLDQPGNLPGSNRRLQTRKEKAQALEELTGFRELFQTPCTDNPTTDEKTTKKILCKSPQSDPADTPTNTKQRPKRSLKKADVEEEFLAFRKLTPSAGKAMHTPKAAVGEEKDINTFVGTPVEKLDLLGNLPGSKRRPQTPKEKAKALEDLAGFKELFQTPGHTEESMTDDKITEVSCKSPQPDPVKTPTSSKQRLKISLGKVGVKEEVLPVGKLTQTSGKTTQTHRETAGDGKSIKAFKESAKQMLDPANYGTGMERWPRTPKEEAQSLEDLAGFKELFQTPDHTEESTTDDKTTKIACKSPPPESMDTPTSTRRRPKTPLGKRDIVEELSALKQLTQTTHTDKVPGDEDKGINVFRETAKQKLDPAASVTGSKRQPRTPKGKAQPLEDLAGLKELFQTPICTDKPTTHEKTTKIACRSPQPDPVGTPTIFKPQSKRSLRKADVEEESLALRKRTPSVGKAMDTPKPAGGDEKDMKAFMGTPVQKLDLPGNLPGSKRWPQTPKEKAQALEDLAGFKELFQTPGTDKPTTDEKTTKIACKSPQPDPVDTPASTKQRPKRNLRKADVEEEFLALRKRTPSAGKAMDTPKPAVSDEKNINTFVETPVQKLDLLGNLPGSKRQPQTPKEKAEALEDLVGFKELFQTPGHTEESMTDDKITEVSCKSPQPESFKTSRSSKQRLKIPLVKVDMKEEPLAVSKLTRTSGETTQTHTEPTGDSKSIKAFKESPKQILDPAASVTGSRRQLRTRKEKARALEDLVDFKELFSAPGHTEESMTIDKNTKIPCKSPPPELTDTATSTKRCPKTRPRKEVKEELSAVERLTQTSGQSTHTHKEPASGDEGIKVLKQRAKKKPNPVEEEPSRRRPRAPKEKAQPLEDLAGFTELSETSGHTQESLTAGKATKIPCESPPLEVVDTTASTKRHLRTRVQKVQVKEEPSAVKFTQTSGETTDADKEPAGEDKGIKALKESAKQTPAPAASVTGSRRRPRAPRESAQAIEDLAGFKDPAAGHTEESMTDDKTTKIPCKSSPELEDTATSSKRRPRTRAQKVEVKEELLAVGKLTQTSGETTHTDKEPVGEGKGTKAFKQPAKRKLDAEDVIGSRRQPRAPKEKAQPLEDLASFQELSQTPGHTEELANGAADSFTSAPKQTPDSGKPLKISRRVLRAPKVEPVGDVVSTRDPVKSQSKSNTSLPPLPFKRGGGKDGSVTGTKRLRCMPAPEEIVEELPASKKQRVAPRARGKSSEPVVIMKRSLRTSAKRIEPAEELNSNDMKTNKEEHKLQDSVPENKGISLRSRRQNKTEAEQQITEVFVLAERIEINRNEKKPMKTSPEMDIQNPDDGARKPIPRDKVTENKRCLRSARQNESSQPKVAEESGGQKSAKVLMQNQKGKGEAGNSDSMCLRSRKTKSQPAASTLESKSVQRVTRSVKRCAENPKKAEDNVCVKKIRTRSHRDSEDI

[28] = target: Human Ki-67 Antigen (human) (UniProt P46013); assay: Double IHC on multi tissue sections, M7240 1:150, 3-layer PNA system with AP
[29] = target: Human Ki-67 Antigen (human) (UniProt P46013); assay: IHC on multi-block FFPE tissue, primary 1:1200, PNA system (D12102 + D12094)
[30] = target: Human Ki-67 Antigen (human) (UniProt P46013); assay: Double IHC on multi tissue sections, M7240 1:150, 3-layer PNA system with HRP, detection method 1
[31] = target: Human Ki-67 Antigen (human) (UniProt P46013); assay: IHC on FFPE tonsil, primary 1:1200, EnVision-based detection K5007
[32] = target: Human Ki-67 Antigen (human) (UniProt P46013); assay: IHC on multi tissue section, M7240 1:150, 3-layer PNA system with AP / Permanent Red; first of two scores, taken as the specific one
[33] = target: Human Ki-67 Antigen (human) (UniProt P46013); assay: Double IHC on multi tissue sections, M7240 1:150, 3-layer PNA system with HRP, detection method 2
[34] = target: Human Ki-67 Antigen (human) (UniProt P46013); assay: IHC on FFPE tonsil, primary 1:400, PNA based detection (D12102 + D12094)
[35] = target: Human Ki-67 Antigen (human) (UniProt P46013); assay: IHC on multi-block FFPE tissue, primary 1:1200, K5007 reference
[36] = target: Human Ki-67 Antigen (human) (UniProt P46013); assay: IHC on FFPE tonsil, primary 1:2400, PNA based detection (D12102 + D12094)
[37] = target: Human Ki-67 Antigen (human) (UniProt P46013); assay: IHC on FFPE tonsil, primary 1:1200, PNA based detection (D12102 + D12094)
Human p27 (human) [38] = target: Human p27 (human) (UniProt P46527); assay: IHC on multi-block FFPE tissue, primary 1:400, K5007 reference
UniProt P46527, sequence (P46527 whole entry): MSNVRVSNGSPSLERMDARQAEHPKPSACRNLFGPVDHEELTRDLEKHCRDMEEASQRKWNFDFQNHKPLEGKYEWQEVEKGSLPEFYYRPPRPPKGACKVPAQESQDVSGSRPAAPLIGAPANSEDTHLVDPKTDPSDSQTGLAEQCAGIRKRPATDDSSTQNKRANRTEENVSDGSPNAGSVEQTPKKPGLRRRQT

Human p27 (human) [39] = target: Human p27 (human) (UniProt P46527); assay: IHC on multi-block FFPE tissue, primary 1:400, PNA system (D12102 + D12094)
Tonsil tissues = assay: IHC on FFPE tonsil, negative control IgG1 1:300, EnVision-based detection K5007
[40] = target: human BCL2 oncoprotein (human) (UniProt P10415); assay: IHC on multi-block FFPE tissue, primary 1:500, K5007 reference
[41] = target: human BCL2 oncoprotein (human) (UniProt P10415); assay: IHC on multi-block FFPE tissue, primary 1:500, PNA system (D12102 + D12094)

UniProt P11836, sequence (P11836 whole entry): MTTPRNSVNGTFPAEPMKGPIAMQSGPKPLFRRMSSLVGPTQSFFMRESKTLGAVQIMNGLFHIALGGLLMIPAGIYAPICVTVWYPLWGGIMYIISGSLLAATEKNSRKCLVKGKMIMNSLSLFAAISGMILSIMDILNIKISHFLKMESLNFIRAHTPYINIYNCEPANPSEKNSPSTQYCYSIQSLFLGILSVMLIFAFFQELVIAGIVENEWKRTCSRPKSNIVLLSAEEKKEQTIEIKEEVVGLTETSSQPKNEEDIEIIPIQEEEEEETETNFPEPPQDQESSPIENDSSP

Substance: K5007 GaM:HRP complex (ChemMate EnVision Detection kit Rabbit/Mouse, DakoCytomation code No. K5007 bottle A) (antibody)
Specific staining intensity with K5007 [1]: 3 score

Substance: Monoclonal Mouse Anti-Human CD20cy (DakoCytomation code No. M0755) (antibody)
Specific staining intensity (Human CD20cy (human) [2]): 1.5 score
Specific staining intensity (Human CD20cy (human) [3]): 2.5 score
Specific staining intensity (Human CD20cy (human) [4]): 1.5 score
Specific staining intensity (Human CD20cy (human) [5]): 3 score
Specific staining intensity (Human CD20cy (human) [6]): 1.5 score
Specific staining intensity (Human CD20cy (human) [7]): 2 score

Substance: Monoclonal Mouse Anti-Human CD45 LCA (DakoCytomation code No. M0701) (antibody)
Specific staining intensity (Human CD45 LCA (human) [8]): 2 score
Specific staining intensity (Human CD45 LCA (human) [9]): 3 score

Substance: Monoclonal Mouse Anti-Human CD68 (DakoCytomation code No. M0876) (antibody)
Specific staining intensity (Human CD68 (human) [10]): 2 score
Specific staining intensity (Human CD68 (human) [11]): 2 score

Substance: Monoclonal Mouse Anti-Human Desmin (DakoCytomation code No. M0760) (antibody)
Specific staining intensity (Human Desmin (human) [21]): 1.5 score
Specific staining intensity (Human Desmin (human) [22]): 1.5 score

Substance: Monoclonal Mouse Anti-Human p27 (DakoCytomation code No. M7203) (antibody)
Specific staining intensity (Human p27 (human) [38]): 1.5 score
Specific staining intensity (Human p27 (human) [39]): 2.5 score

Substance: mouse IgG1 negative control (DakoCytomation code No. X0931) (antibody)
Specific staining intensity (Tonsil tissues): 0 score

Substance: mouse anti-human BCL2 oncoprotein, Clone 124 (DakoCytomation code No. M0887) (antibody)
Specific staining intensity [40]: 2 score
Specific staining intensity [41]: 2 score

Second part, the substance after the results:

Specific staining intensity [12]: 2.5 score
specific staining [13]: 2.5 score
Specific staining intensity [14]: 3 score
Specific staining intensity [15]: 2 score
Specific staining intensity [16]: 2 score
specific staining [17]: 3 score
Specific staining intensity [18]: 1.5 score
Specific staining intensity [19]: 1.5 score
specific staining [20]: 3 score
Substance: Monoclonal Mouse Anti-Human Cytokeratin (DakoCytomation code No. M3515) (antibody)

Specific staining intensity [23]: 2.5 score
Specific staining intensity [24]: 1.5 score
Substance: Monoclonal Mouse Anti-Human Epithelial Membrane Antigen (DakoCytomation code No. M0613) (antibody)

Specific staining intensity [25]: 3 score
Specific staining intensity [26]: 2.5 score
Substance: Monoclonal Mouse Anti-Human Estrogen Receptor (DakoCytomation code No. M7047) (antibody)

Staining intensity score [27]: 2.5
specific staining [28]: 2 score
Specific staining intensity [29]: 2 score
specific staining [30]: 1.5 score
Specific staining intensity [31]: 2 score
staining score [32]: 1
specific staining [33]: 1.5 score
Specific staining intensity [34]: 3 score
Specific staining intensity [35]: 1.5 score
Specific staining intensity [36]: 1.5 score
Specific staining intensity [37]: 2.5 score
Substance: Monoclonal Mouse Anti-Human Ki-67 Antigen (DakoCytomation code No. M7240) (antibody)

From patent US9017992
